Test results reported in publication PMC11189300 (2024).

B2: Mis12 complex (Mis12C), full length: MIS12, PMF1, NSL1, DSN1 (complex)
chain 1: MSVDPMTYEAQFFGFTPQTCMLRIYIAFQDYLFEVMQAVEQVILKKLDGIPDCDISPVQIRKCTEKFLCFMKGHFDNLFSKMEQLFLQLILRIPSNILLPEDKCKETPYSEEDFQHLQKEIEQLQEKYKTELCTKQALLAELEEQKIVQAKLKQTLTFFDELHNVGRDHGTSDFRESLVSLVQNSRKLQNIRDNVEKESKRLKIS
chain 2: MAEASSANLGSGCEEKRHEGSSSESVPPGTTISRVKLLDTMVDTFLQKLVAAGSYQRFTDCYKCFYQLQPAMTQQIYDKFIAQLQTSIREEISDIKEEGNLEAVLNALDKIVEEGKVRKEPAWRPSGIPEKDLHSVMAPYFLQQRDTLRRHVQKQEAENQQLADAVLAGRRQVEELQLQVQAQQQAWQALHREQRELVAVLREPE
chain 3: MAGSPELVVLDPPWDKELAAGTESQALVSATPREDFRVRCTSKRAVTEMLQLCGRFVQKLGDALPEEIREPALRDAQWTFESAVQENISINGQAWQEASDNCFMDSDIKVLEDQFDEIIVDIATKRKQYPRKILECVIKTIKAKQEILKQYHPVVHPLDLKYDPDPAPHMENLKCRGETVAKEISEAMKSLPALIEQGEGFSQVLRMQPVIHLQRIHQEVFSSCHRKPDAKPENFITQIETTPTETASRKTSDMVLKRKQTKDCPQRKWYPLRPKKINLDT
chain 4: MTSVTRSEIIDEKGPVMSKTHDHQLESSLSPVEVFAKTSASLEMNQGVSEERIHLGSSPKKGGNCDLSHQERLQSKSLHLSPQEQSASYQDRRQSWRRASMKETNRRKSLHPIHQGITELSRSISVDLAESKRLGCLLLSSFQFSIQKLEPFLRDTKGFSLESFRAKASSLSEELKHFADGLETDGTLQKCFEDSNGKASDFSLEASVAEMKEYITKFSLERQTWDQLLLHYQQEAKEILSRGSTEAKITEVKVEPMTYLGSSQNEVLNTKPDYQKILQNQSKVFDCMELVMDELQGSVKQLQAFMDESTQCFQKVSVQLGKRSMQQLDPSPARKLLKLQLQNPPAIHGSGSGSCQ

Key:
[1] = biological target: B2; test: BLI
[2] = biological target: T1, Mis12C with KNL1_(2,026–2,342) bound (human, UniProt Q9H081 1-205; Q6P1K2 1-205; Q96IY1 1-281; Q9H410 1-356; Q8NG31 2026-2342); test: BLI
T1 chain 1: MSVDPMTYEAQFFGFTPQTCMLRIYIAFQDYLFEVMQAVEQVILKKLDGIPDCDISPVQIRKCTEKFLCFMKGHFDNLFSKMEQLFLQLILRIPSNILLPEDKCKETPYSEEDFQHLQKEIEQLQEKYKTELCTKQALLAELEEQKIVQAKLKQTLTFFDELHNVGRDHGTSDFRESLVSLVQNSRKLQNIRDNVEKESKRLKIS
T1 chain 2: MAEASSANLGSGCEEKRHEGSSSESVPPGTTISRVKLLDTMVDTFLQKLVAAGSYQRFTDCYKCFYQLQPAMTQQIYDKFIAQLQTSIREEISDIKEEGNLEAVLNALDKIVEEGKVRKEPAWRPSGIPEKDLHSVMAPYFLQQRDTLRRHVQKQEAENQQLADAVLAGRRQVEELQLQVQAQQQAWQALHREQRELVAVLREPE
T1 chain 3: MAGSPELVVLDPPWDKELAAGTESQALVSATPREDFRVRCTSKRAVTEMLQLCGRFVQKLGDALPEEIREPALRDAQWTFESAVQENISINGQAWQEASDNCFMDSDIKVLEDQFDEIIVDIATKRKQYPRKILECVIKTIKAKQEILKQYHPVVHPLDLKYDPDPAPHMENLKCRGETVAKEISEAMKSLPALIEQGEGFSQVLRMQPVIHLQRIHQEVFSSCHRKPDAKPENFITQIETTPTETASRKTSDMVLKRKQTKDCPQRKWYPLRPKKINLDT
T1 chain 4: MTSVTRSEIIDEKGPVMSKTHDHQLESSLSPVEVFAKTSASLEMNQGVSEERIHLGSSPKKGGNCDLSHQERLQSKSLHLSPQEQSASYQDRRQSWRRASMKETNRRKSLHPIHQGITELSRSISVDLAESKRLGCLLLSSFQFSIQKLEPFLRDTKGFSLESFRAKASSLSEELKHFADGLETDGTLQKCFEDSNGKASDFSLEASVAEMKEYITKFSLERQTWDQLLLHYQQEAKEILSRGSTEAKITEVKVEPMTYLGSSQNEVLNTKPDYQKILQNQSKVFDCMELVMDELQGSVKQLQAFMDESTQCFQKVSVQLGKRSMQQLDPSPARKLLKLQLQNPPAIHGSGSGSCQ
T1 chain 5: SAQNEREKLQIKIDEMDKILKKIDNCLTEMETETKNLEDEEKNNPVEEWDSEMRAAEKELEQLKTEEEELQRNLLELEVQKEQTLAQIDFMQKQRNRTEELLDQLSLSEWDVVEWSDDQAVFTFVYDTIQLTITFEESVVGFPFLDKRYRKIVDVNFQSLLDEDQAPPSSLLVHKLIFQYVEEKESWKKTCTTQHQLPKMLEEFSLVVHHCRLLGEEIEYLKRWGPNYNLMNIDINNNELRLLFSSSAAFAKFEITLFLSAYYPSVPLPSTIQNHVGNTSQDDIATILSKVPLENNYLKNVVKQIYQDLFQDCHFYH

[3] = biological target: T1, Mis12C with KNL1_(2,026–2,342) bound; test: BLI
[4] = biological target: SPC24/SPC25^L154A-L176A (human, UniProt Q8NBT2 1-197; Q9HBM1 1-224, L154A | L176A); test: ITC
[5] = biological target: SPC24^Y138A/SPC25 (human, UniProt Q8NBT2 1-197; Q9HBM1 1-224, Y138A); test: ITC
[6] = biological target: KNL1^M1 (human, UniProt Q8NG31); test: ITC
[7] = biological target: KNL1^M2 (human, UniProt Q8NG31); test: ITC
[8] = biological target: T2, KNL1 (construct of the BLI titrations with ZWINT) (human, UniProt Q8NG31); test: BLI; Kd1
T2 chain: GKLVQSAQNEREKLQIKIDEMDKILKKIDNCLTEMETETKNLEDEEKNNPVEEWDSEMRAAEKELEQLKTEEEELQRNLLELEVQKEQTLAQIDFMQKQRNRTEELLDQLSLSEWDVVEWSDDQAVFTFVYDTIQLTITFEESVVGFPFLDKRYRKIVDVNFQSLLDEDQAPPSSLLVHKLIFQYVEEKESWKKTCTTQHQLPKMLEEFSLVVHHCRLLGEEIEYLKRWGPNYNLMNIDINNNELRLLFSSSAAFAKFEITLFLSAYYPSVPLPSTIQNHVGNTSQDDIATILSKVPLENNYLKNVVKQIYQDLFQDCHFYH

[9] = biological target: T2, KNL1 (construct of the BLI titrations …); test: BLI; Kd2 (second site)
[10] = biological target: Mis12C^M1 (human, UniProt Q9H081 1-205; Q6P1K2 1-205; Q96IY1 1-281; Q9H410 1-356); test: ITC
[11] = biological target: Mis12C^M2 (human, UniProt Q9H081 1-205; Q6P1K2 1-205; Q96IY1 1-281; Q9H410 1-356); test: ITC

B1: Ndc80 complex (Ndc80C): NDC80^HEC1, NUF2, SPC24, SPC25 (complex)
chain 1: MKRSSVSSGGAGRLSMQELRSQDVNKQGLYTPQTKEKPTFGKLSINKPTSERKVSLFGKRTSGHGSRNSQLGIFSSSEKIKDPRPLNDKAFIQQCIRQLCEFLTENGYAHNVSMKSLQAPSVKDFLKIFTFLYGFLCPSYELPDTKFEEEVPRIFKDLGYPFALSKSSMYTVGAPHTWPHIVAALVWLIDCIKIHTAMKESSPLFDDGQPWGEETEDGIMHNKLFLDYTIKCYESFMSGADSFDEMNAELQSKLKDLFNVDAFKLESLEAKNRALNEQIARLEQEREKEPNRLESLRKLKASLQGDVQKYQAYMSNLESHSAILDQKLNGLNEEIARVELECETIKQENTRLQNIIDNQKYSVADIERINHERNELQQTINKLTKDLEAEQQKLWNEELKYARGKEAIETQLAEYHKLARKLKLIPKGAENSKGYDFEIKFNPEAGANCLVKYRAQVYVPLKELLNETEEEINKALNKKMGLEDTLEQLNAMITESKRSVRTLKEEVQKLDDLYQQKIKEAEEEDEKCASELESLEKHKHLLESTVNQGLSEAMNELDAVQREYQLVVQTTTEERRKVGNNLQRLLEMVATHVGSVEKHLEEQIAKVDREYEECMSEDLSENIKEIRDKYEKKATLIKSSEE
chain 2: METLSFPRYNVAEIVIHIRNKILTGADGKNLTKNDLYPNPKPEVLHMIYMRALQIVYGIRLEHFYMMPVNSEVMYPHLMEGFLPFSNLVTHLDSFLPICRVNDFETADILCPKAKRTSRFLSGIINFIHFREACRETYMEFLWQYKSSADKMQQLNAAHQEALMKLERLDSVPVEEQEEFKQLSDGIQELQQSLNQDFHQKTIVLQEGNSQKKSNISEKTKRLNELKLSVVSLKEIQESLKTKIVDSPEKLKNYKEKMKDTVQKLKNARQEVVEKYEIYGDSVDCLPSCQLEVQLYQKKIQDLSDNREKLASILKESLNLEDQIESDESELKKLKTEENSFKRLMIVKKEKLATAQFKINKKHEDVKQYKRTVIEDCNKVQEKRGAVYERVTTINQEIQKIKLGIQQLKDAAEREKLKSQEIFLNLKTALEKYHDGIEKAAEDSYAKIDEKTAELKRKMFKMST
chain 3: MAAFRDIEEVSQGLLSLLGANRAEAQQRRLLGRHEQVVERLLETQDGAEKQLREILTMEKEVAQSLLNAKEQVHQGGVELQQLEAGLQEAGEEDTRLKASLLQLTRELEELKEIEADLERQEKEVDEDTTVTIPSAVYVAQLYHQVSKIEWDYECEPGMVKGIHHGPSVAQPIHLDSTQLSRKFISDYLWSLVDTEW
chain 4: MVEDELALFDKSINEFWNKFKSTDTSCQMAGLRDTYKDSIKAFAEKLSVKLKEEERMVEMFLEYQNQISRQNKLIQEKKDNLLKLIAEVKGKKQELEVLTANIQDLKEEYSRKKETISTANKANAERLKRLQKSADLYKDRLGLEIRKIYGEKLQFIFTNIDPKNPESPFMFSLHLNEARDYEVSDSAPHLEGLAEFQENVRKTNNFSAFLANVRKAFTATVYN
koff [1]: 0.000582 s⁻¹
koff [2]: 0.00024 s⁻¹
Kd [3]: 1.15 nM

B2
Kd [4]: 1270 nM
Kd [5]: 295 nM
Kd [6]: 140 nM
Kd [7]: 109 nM

B3: ZWINT (natural protein)
chain: MEAAETEAEAAALEVLAEVAGILEPVGLQEEAELPAKILVEFVVDSQKKDKLLCSQLQVADFLQNILAQEDTAKGLDPLASEDTSRQKAIAAKEQWKELKATYREHVEAIKIGLTKALTQMEEAQRKRTQLREAFEQLQAKKQMAMEKRRAVQNQWQLQQEKHLQHLAEVSAEVRERKTGTQQELDRVFQKLGNLKQQAEQERDKLQRYQTFLQLLYTLQGKLLFPEAEAEAENLPDDKPQQPTRPQEQSTGDTMGRDPGVSFKAVGLQPAGDVNLP
Kd [8]: 81.8 nM
Kd [9]: 65.3 nM

B4: KNL1 residues 2,026–2,342 (domain or fragment)
chain: SAQNEREKLQIKIDEMDKILKKIDNCLTEMETETKNLEDEEKNNPVEEWDSEMRAAEKELEQLKTEEEELQRNLLELEVQKEQTLAQIDFMQKQRNRTEELLDQLSLSEWDVVEWSDDQAVFTFVYDTIQLTITFEESVVGFPFLDKRYRKIVDVNFQSLLDEDQAPPSSLLVHKLIFQYVEEKESWKKTCTTQHQLPKMLEEFSLVVHHCRLLGEEIEYLKRWGPNYNLMNIDINNNELRLLFSSSAAFAKFEITLFLSAYYPSVPLPSTIQNHVGNTSQDDIATILSKVPLENNYLKNVVKQIYQDLFQDCHFYH
koff [1]: 0.000451 s⁻¹
Kd [10]: 45.2 nM
Kd [11]: 24.8 nM
